Assay results published in the supplement of paper PMC9170038.

Test system: MS2 coat protein
Assay: apparent KD of MS2 coat protein; designed switch direction (-1 OFF switch, 1 ON switch): -1; higher = weaker reporter binding
Method in brief: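 Transcription of designed RNA switches on Illumina chips was done by stalled E. coli RNA polymerase. SNAP-549-labelled MS2 coat protein was then titrated in doubling steps from 0.7 or 1.5 nM to 3 µM, with steps of 0.8–1.5 h at the lowest and 10–20 min at the highest concentration. The per-design median over clusters of curve-fitted normalised fluorescence is reported as apparent KD.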

[1] = input ligand: microRNA oligo, concentration not stated
[2] = Eterna round: R95, input ligand: microRNA oligo, concentration not stated
[3] = Eterna round: R95, input ligand: FMN 200 uM
[4] = Eterna round: R95, input ligand: none

Sequence	apparent KD of MS2 coat protein (input ligand: FMN 200 uM) [nM]	apparent KD of MS2 coat protein [1] [nM]	apparent KD of MS2 coat protein (input ligand: none) [nM]	apparent KD of MS2 coat protein [2] [nM]	apparent KD of MS2 coat protein [3] [nM]	apparent KD of MS2 coat protein [4] [nM]
CACCUGAAGAGAGGAUAUGAUACAUGAGGAUCACCCAUGUAAUAAAUGAGAAUUUCGAAUGUAAUUCAGAAGGCUCGAUAAGGC [Ostricism 100 - Jieux - Exclusion NG 2] (Eterna round: R96, puzzle: Exclusion NG 2)	121	45.6	55.3			
GUCAGACGAGGAUAUAGAUUUAGAUACAUGAGGAUCACCCAUGUAUACAUGUAUUUAGAUUUAGAAGGCGUCUGAC [E5/14-A4] (Eterna round: R97, puzzle: Exclusion 5)	492		1360			
UACAUGAGGAUCACCCAUGUUUUGUCGUGUAUGGUACCCAUCUAGGAUAUCGUGUUAUUUAACCACGAGAAGGAGAGUAUCAAU [MOD4 Solution 21 by JMF] (Eterna round: R96, puzzle: Exclusion NG 3)	22.4	13	21.8			
CUAUUGGCAGGAUAUGCUUUUUUAGACAUGAGGAUCACCCAUGUGAUGAAUAUUGGGUUUGCAGAAGGGCCUGAAU [JR_E5_Sub039] (puzzle: Exclusion 5)				64.2		
GGUGCGUAUGUUAGGAUAUGCUGGUCCUUGGAUCGGCAGAAGGUACAUGAGGAUCACCCAUGUGGUGUCGUUCC [salish99_Bmod_ex4_103] (puzzle: Brourd's mod of Exclusion 4)				50.8		
CUAUUACGAGGAUAUGAUUUAAGUAACAUGAGGAUCACCCAUGUUUUUCCGUUGUUAUGUUCAGAAGGCGUAUUAU [JR_E5_Sub023] (puzzle: Exclusion 5)				35.6	86.1	38.8
CUUCGUAUAGAGGAUAUAGGUUACUGCGGUAUCCUAGAAGGCUGUACAUGAGGAUCACCCAUGUACUUCAGAUC [Exclusion 6 - B - 13:c] (puzzle: Exclusion 6)				12.6		
AUACAGGAUGUCAGGAUAUGUUGUAGGUUCCGACGACAGAAGGGACAUGAGGAUCACCCAUGUAGGCCUUUGCU [BmEX4 C.7] (Eterna round: R97, puzzle: Brourd's mod of Exclusion 4)	31.4		15.1			
GAAGAGACAGGAUAUACAUGAGGAUCACCCAUGUGAGUAUGUUGGAGGCGGAGGAGGUGUAGAAGGGUCAAAGA [JR_Exclu3_Sub019] (puzzle: Exclusion 3)				20.2		
GCAGCAACUCUCACUAACUAAACAUGAGGAUCACCCAUGUCUCAGGAUAUGGUCUGGAUUACAGGCCAGAAGGGAGAAAGCUGC [Eli exng3 - 040] (Eterna round: R96, puzzle: Exclusion NG 3)	9.73	10.6	13.1			
UCUUAUUGAGGAUAUACAGAUUAUUACAUGAGGAUCACCCAUGUUCUUCAAUGUAUAUAUGUAGAAGGCAGAGGAA [Mat - Exclusion 5 - JL Mod - D11] (Eterna round: R97, puzzle: Exclusion 5)	112		67.4			
GAGUGACAUGAGGAUCACCCAUGUGAGGAUAUCGGACGGACCAAAUUAACAAUUUUUGCGAGAAGGCACAUCGG [Exclusion 1 V18] (puzzle: Exclusion 1)				51.9		
CUUUAGCUAGGAUAUACAUGAGGAUCACCCAUGUUAGCGGUCAAUUGGGCCGCGGGUUGUAGAAGGAGCAUUAA [Aniscerile] (puzzle: Exclusion 3)				28.6		
AGCAUGUAAGGAUAUGUAACGCGGCUUUCAUUCGCCGUCCCACAGAAGGUACAUGAGGAUCACCCAUGUGCUCC [Solaisorin] (puzzle: Exclusion 4)				33.3		
CAGCUGAAAGUGAGGAUAUCGACUGCUUCGGCAGUCGAGAAGGCACAUGAGGAUCACCCAUGUCUCAACAGCUG [BmEx4/1-A4] (Eterna round: R97, puzzle: Brourd's mod of Exclusion 4)	70.3		20.7			
AUUUUGUCAGGAUAUGAGUAGUAGGACGAAAGUGUUAUUAUUUAGAAGGGACAUGAGGAUCACCCAUGUUUUCC [Bring Us a Shrubbery-04] (puzzle: Exclusion 4)				12		
UAUUAGCAAGUAAGGUCCCACAUGAGGAUCACCCAUGUGCUCGUCACCUCAGGUACGGAGCGGAAACUCCCGAUAUG [Sensor-V1 #91] (Eterna round: R97, puzzle: Sensor, turn-off variant 1)	81.4		83.1			
CUUAGACAUGAGGAUCACCCAUGUGAGGAUAUGAUGCGAAUAAAGAAAGAAGAAAGCAUCAGAAGGCACAUAUG (Eterna round: R96, puzzle: Exclusion 1)	382	94.1	125			

Sequence	apparent KD of MS2 coat protein (input ligand: FMN 200 uM) [nM]	apparent KD of MS2 coat protein [1] [nM]	apparent KD of MS2 coat protein (input ligand: none) [nM]	apparent KD of MS2 coat protein [2] [nM]	apparent KD of MS2 coat protein [3] [nM]	apparent KD of MS2 coat protein [4] [nM]
UCUCGAAGGCAAGGAUAUCCUACAUUGUUCUGGCCCGGGCAUGCUACAUGAGGAUCACCCAUGUGGGAGAAGGUGCGCCACGGC [Design 29] (Eterna round: R96, puzzle: Exclusion NG 2)	31.6	32.9	43.1			
UCAUGUCCAGAGGAUAUGUAGAUCGAGAGAUCAACAGAAGGCUGGACAUGAGGAUCACCCAUGUGCGCCUUCAA [jl-ex3-4.29 ViennaUCT mod] (Eterna round: R97, puzzle: Exclusion 6)	70.6		188			
GCAGCAUAGUUUACUAACUGUUACAUGAGGAUCACCCAUGUUGAGGAUAUGGUCUGGAUUACAGGCCAGAAGGCGACAAGCUGC [Eli exng3 - 028] (Eterna round: R96, puzzle: Exclusion NG 3)	18.1	13	16.9			
AUGCGACAUGAGGAUCACCCAUGUGAGGAUAUUCGAAUGCACAAUUCGGUGUGAUAGAGGAGAAGGCGCAGGUA [EX1 #19] (Eterna round: R97, puzzle: Exclusion 1)	154		243			
CAUGUCCAACGAGGAUAUGGGAAAGGAAGUGUACCAGAAGGCGUACGGACAUGAGGAUCACCCAUGUCGCGCGGUGCGAUGUGG [MOD2 Nando EXNG 1.1] (Eterna round: R96, puzzle: Exclusion NG 1)	112	39.1	98.9			
UGAUCAGACCGAGGAUAUAUAUGUAGGACCCACGUGAGUGGGUCCAGUACAUGAGGAUCACCCAUGUAGAAGGCGGUCUGAUCU [JL ENG2 1.87] (Eterna round: R96, puzzle: Exclusion NG 2)	19.2	10.7	15			
GUUAAACAUGAGGAUCACCCAUGUAAGGAUAUGCUGCGGUCGAGAUGAAGUGACUGCAGCAGAAGGUACAAAUG [Mat - Mod of JL D60] (puzzle: Exclusion 1)				127	162	133
GCCGGGCGUGUAGGAUAUGGCCGGCGGUGCCGGCCAGAAGGACAUGAGGAUCACCCAUGUGCCGGCCUUGGGCCGGCGCCCGGC [-51, -48 kcal and 14% A] (Eterna round: R96, puzzle: Exclusion NG 1)	14.9	8.09	13.3			
GUAAAGGUAGGAUAUACGAAGAAAAAGGGUAGAAUAAUAACACAUGAGGAUCACCCAUGUAGAAGGACCAAAGG [Mat - Exclusion 2 - Mod of my Tesla design - D8] (puzzle: Exclusion 2)				26.4	49.8	23.8
CAACAGGGAGGAUAUACAUGAGGAUCACCCAUGUUCGAGCGUCCUUGAACUACCUCUGGUAGAAGGCCCACACG [Bibiorbi] (Eterna round: R97, puzzle: Exclusion 3)	147		56.9			
UCAUAACAUGAGGAUCACCCAUGUCAGGAUAUGAUACUAUGUACUUCGGUACAUAGUAUCAGAAGGGACAUGCU [Brourd's Ex1-3: 12 (nt 72 G)] (puzzle: Exclusion 1)				135		
ACAUCACAGCUAGGAUAUAGAUGACAUGAGGAUCACCCAUGUUAUCCCAUGUUGACGAAAACCGACUAGAAGGAGCUACAGAUG [Ex NG2 #6] (Eterna round: R96, puzzle: Exclusion NG 2)	101	40.2	63.7			
GCGGAAAACUUAGGAUAUCAGGGCUGCACAUGAGGAUCACCCAUGUGAUAGCUCUAACGCGGUCCUGAGAAGGGAGAGCCCGGA [Rarasoa] (Eterna round: R96, puzzle: Exclusion NG 2)	94.2	43.8	44.7			
GAAAAGGUAGGAUAUACAAAAAAAAAGGGUAGAAAAAAAACACAUGAGGAUCACCCAUGUAGAAGGACCAAAAG [salish99_ex2_r3_057] (puzzle: Exclusion 2)				37	83.7	25.9
GAAAAGGUAGGAUAUACGAAAAGAAAGGGUAGAAAGAAAACACAUGAGGAUCACCCAUGUAGAAGGACCAAAAG [salish99_ex2_r3_095] (puzzle: Exclusion 2)				14.6	37.3	26.8
AGUCAAACGGUAGGAUAUCCAUAUCGAGUGACCCUUUCAUAACAUGAGGAUCACCCAUGUCGGUGGGAGAAGGGCCGUAAGGCA [Mat - Exclusion NG 2 - Mod of JL - D70] (Eterna round: R96, puzzle: Exclusion NG 2)	99.6	43.1	52.4			
CAAAACUGAGGAUAUACAUGAGGAUCACCCAUGUCCAAGGUCCUGGGCGGAUGCUGCUGUAGAAGGCGGAAAGA [Diatsobi] (puzzle: Exclusion 3)				21.8		
